Experimental data reported in PMC3760305, “Mimicking Protein–Protein Interactions through Peptide–Peptide Interactions: HIV-1 gp120 and CXCR4” (Frontiers in Immunology, 2013).

target: CXCR4 mimetic peptide CX4-M1; assay: SPR; Biacore X100, Biotin CAPture Kit; CX4-M1 (2 μM) bound to streptavidin; V3 loop peptides 5–0.3 μM; HBS-N (10 mM HEPES, 150 mM NaCl, pH 7.4), 0.05% Tween 20, 100 mM MgCl2; no sCD4; details: not given

Substance	Kd [µM]
V3 loop peptide V3_(HxBc2)	0.3

target: CXCR4 mimetic peptide CX4-M1; assay: direct ELISA; details: parent: 1; read off a plot

Substance	ratio to parent
V3 loop peptide V3_(HxBc2) F317A	0.16
V3 loop peptide V3_(HxBc2) G312A	0.82
V3 loop peptide V3_(HxBc2) G314A	0.86
V3 loop peptide V3_(HxBc2) G321A	0.7
V3 loop peptide V3_(HxBc2) G324A	1.4
V3 loop peptide V3_(HxBc2) I307A	0.18
V3 loop peptide V3_(HxBc2) I309A	0.13
V3 loop peptide V3_(HxBc2) I320A	0.16
V3 loop peptide V3_(HxBc2) I323A	0.53
V3 loop peptide V3_(HxBc2) K322A	2.1
V3 loop peptide V3_(HxBc2) M326A	1.3
V3 loop peptide V3_(HxBc2) N325A	1.3
V3 loop peptide V3_(HxBc2) P313A	0.67
V3 loop peptide V3_(HxBc2) Q310A	1
V3 loop peptide V3_(HxBc2) R306A	0.78
V3 loop peptide V3_(HxBc2) R308A	0.57
V3 loop peptide V3_(HxBc2) R311A	1.4
V3 loop peptide V3_(HxBc2) R315A	0.46
V3 loop peptide V3_(HxBc2) T319A	0.63
V3 loop peptide V3_(HxBc2) V318A	0.41

target: CXCR4 mimetic peptide CX4-M1; assay: SPR; Biacore X100, Biotin CAPture Kit; CX4-M1 (2 μM) bound to streptavidin; gp120 8–0.5 nM; HBS-N (10 mM HEPES, 150 mM NaCl, pH 7.4), 0.05% Tween 20, 2.5 mM MgCl2; no sCD4; details: not given

Substance	Kd [µM]
Gp120_(IIIB) (natural protein)	0.1
gp120MN (natural protein)	0.7
gp120_(HxBc2) (from UniProt P04578 33-511) (natural protein)	0.2
